Here are results for 38 variants from the RNAGym collection of RNA variant scans (doi:10.7554/elife.80360).

B1: Hairpin Ribozyme (parent)
chain: GUCCUCUUUCACGUGCGCGUGAAAGAGAGAAGUGAACCAGAGAAACACACGUUGUGGUAUAUUACCUGGUA

In the series the parent is B1. As to the kind of experiment: self-cleavage, relative activity (ratio to wild type); higher = more cleavage; co-transcriptional.
For GUCCCCUUUCACGUGCGCGUGAAAGAGAGAAGCGAACCAGAGAAACACACGUUGUGGUAUAUUACCUGGUA [U5C U33C], the self-cleavage came to 0.0316.
The same measure for GUCCUCUUUCACGUGCGCGUGAAAGAGAGAAGUGAACCAGAGAAACAGACGUUGUGCUAUAUUACCUGGUA [C48G G57C]: 0.169.
As to GUCCUCUUUCACGUGCGCGUGAAAGAGAGAAGUGAACCAGAGAAACACACGUUGAGGUAUAUGACCUGGUA [U55A U63G], the self-cleavage was found to be 0.142.
The same measure for GUCCUCUUUCACGUGCGCGUGAAAGAGAGAAGUGAACCAGAUAAACACACGUUGUGCUAUAUUACCUGGUA [G42U G57C]: 0.0657; for GUCCUCUUUCACGGGCGCGUGAAAGAGAGAAGCGAACCAGAGAAACACACGUUGUGGUAUAUUACCUGGUA [U14G U33C]: 0.0267; for GUCCACUUUCACGUGCGCGUGAAAGAGAGAAGUGAACCAUAGAAACACACGUUGUGGUAUAUUACCUGGUA [U5A G40U]: 0.101.
The value for GUCCUCUUUCACGUGCGCGUGAAAGAGAGCAGUGAACCAGAGAAACAUACGUUGUGGUAUAUUACCUGGUA [A30C C48U] was 0.17.
On to GCCCUCUUUCACGUGCGCGUGAAAGAGAGAAGUGAACCAGAAAAACACACGUUGUGGUAUAUUACCUGGUA [U2C G42A], for which the self-cleavage was 0.0595.
The value for GUCCUCUUUCACGUGCGCGUGAAAGAGAGAGGUGAAGCAGAGAAACACACGUUGUGGUAUAUUACCUGGUA [A31G C37G] was 0.162; that for GUCCUCUUUGACGUGCGCGUGAAAAAGAGAAGUGAACCAGAGAAACACACGUUGUGGUAUAUUACCUGGUA [C10G G25A] was 0.211; that for GUCCUCUUUCACGUGCGCGUGAAAGAGAGAAGUGAAACAGAGAAACACACGUUGUGGCAUAUUACCUGGUA [C37A U58C] was 0.349.
As to GUCUUCAUUCACGUGCGCGUGAAAGAGAGAAGUGAACCAGAGAAACACACGUUGUGGUAUAUUACCUGGUA [C4U U7A], the self-cleavage was found to be 0.296.
The value for GUCCUCUUGCACGUGCGCGUGAAAGAGAGAAGUGAACCAGAGAAACACACGUUGUGGUAUAUUCCCUGGUA [U9G A64C] was 0.164; that for GUCCUCUUUCACGUGCGCGUGAAAGAGAGAAGUGAACCAGAGAAACACACGUUGUGGUAUAUUUCGUGGUA [A64U C66G] was 0.069.
The same measure for GUCCUCUUUCACGUGCGCGUCAAAGAGAGAAGUGAACCAGAGAAACACACGUUGUGGUAUAUUACCUAGUA [G21C G68A]: 0.321; for UUCCUCUUUCACGUGCGCGUGAAAAAGAGAAGUGAACCAGAGAAACACACGUUGUGGUAUAUUACCUGGUA [G1U G25A]: 0.133; for GUGCUCUUUCACGUGCGCGUGAAAGAGAGACGUGAACCAGAGAAACACACGUUGUGGUAUAUUACCUGGUA [C3G A31C]: 0.0694.
Take AUCCUCUUUCACGUGAGCGUGAAAGAGAGAAGUGAACCAGAGAAACACACGUUGUGGUAUAUUACCUGGUA [G1A C16A]: the self-cleavage turned out to be 0.172.
The same measure for GUCCUCUUUCACGUGCGCGUGAAAGAGGGAUGUGAACCAGAGAAACACACGUUGUGGUAUAUUACCUGGUA [A28G A31U]: 0.0204.
Turning to GUCCUCUUGCACGUACGCGUGAAAGAGAGAAGUGAACCAGAGAAACACACGUUGUGGUAUAUUACCUGGUA [U9G G15A], the self-cleavage came out at 0.646.
The same measure for GUCCUCUUUCACAUGCGCGUGAAAGACAGAAGUGAACCAGAGAAACACACGUUGUGGUAUAUUACCUGGUA [G13A G27C]: 0.217; for GCCCUCUUUCACGUGCGAGUGAAAGAGAGAAGUGAACCAGAGAAACACACGUUGUGGUAUAUUACCUGGUA [U2C C18A]: 0.118; for GUCCUCUUUCACGUGCGUGUGAAAGAGAGAAGUGAACCAGAGAAACACACGUUGUGGUAUAUUACCGGGUA [C18U U67G]: 0.303.
The value for GUCCUCUUUCACGUGCGCGUGAAAGGGAGAAGUGAACCAGAGAAACACACGUUGUGGUAUAUUACCGGGUA [A26G U67G] was 0.281; that for GUCCUCUUUCACGUGCGCGUGAAAGAGAGAAGUGAACCAGAGAAACACACGGUGUGGUUUAUUACCUGGUA [U52G A59U] was 0.177.
GCCCUCUUUCACGUGCGCGUCAAAGAGAGAAGUGAACCAGAGAAACACACGUUGUGGUAUAUUACCUGGUA [U2C G21C]: the self-cleavage stood at 0.213.
The same measure for GUCCUCUUUCACGUGCGCGUGAAAGAGAGAAGUGAACCAGCGAAACACACGUUGUGGUAUGUUACCUGGUA [A41C A61G]: 0.304; for GUCCUCUUUCAGGUGCGCGUGAAAGAGGGAAGUGAACCAGAGAAACACACGUUGUGGUAUAUUACCUGGUA [C12G A28G]: 0.889.
The same measure for GUCCUCUUUCACGUGCGCGUGAAGGAGAGAAGUGAACCAGAGAAACACACGUUGUGGUAUAUUACCUGCUA [A24G G69C]: 0.238; for GUCCACUUUCACGUGCGCGUGAAAGAAAGAAGUGAACCAGAGAAACACACGUUGUGGUAUAUUACCUGGUA [U5A G27A]: 0.179.
The same measure for GUCCUCUUUCACGUGAGCGUGAAAGAGAGAAGUGAACCAGAGAAACACACGUUGUGGUAUACUACCUGGUA [C16A U62C]: 0.276; for GUCCUCUUUCACGUGCGCGUGAAAGAGAGAAGUGAACCAGAGAAACACCCGUUGUGGUAUAAUACCUGGUA [A49C U62A]: 0.15; for GUCCUCUUUCACGUGCGCGUGAAAGAGAGAAGUGAAACAGUGAAACACACGUUGUGGUAUAUUACCUGGUA [C37A A41U]: 0.429.
Take GUCCUCUUUCACGUGCGCGUGAAAGAGAGAAGUGAACCAGAGAAACACACGUGGUGGUAUAGUACCUGGUA [U53G U62G]: the self-cleavage turned out to be 0.315.
Consider GUCCUCUUUCACGUGCGCGUGAAAGAGAGAAGUGAACCAAAGAAACACACGUUGUGGUAUAUUACCUAGUA [G40A G68A], for which the self-cleavage is 0.211.
With GUCCUCUUUCACGUGCGCGUGAAAGAGAGAAGUGAGCCAGAGAAACACACGUUGUGGUAUAUUAUCUGGUA [A36G C65U], the self-cleavage is 0.267.
The same measure for GUCCUCUUUCACGUGCGCGUGAAAGAGAGAGGUGAACCAGAGAAACACACGUUGUGGUAUUUUACCUGGUA [A31G A61U]: 0.159; for GUCCUCUGCCACGUGCGCGUGAAAGAGAGAAGUGAACCAGAGAAACACACGUUGUGGUAUAUUACCUGGUA [U8G U9C]: 0.595.
